Data reported in patent publication US20220251546.

Target: T1, IFIT5 (rhIFIT5) (Homo sapiens) (UniProt Q13325)
T1 sequence: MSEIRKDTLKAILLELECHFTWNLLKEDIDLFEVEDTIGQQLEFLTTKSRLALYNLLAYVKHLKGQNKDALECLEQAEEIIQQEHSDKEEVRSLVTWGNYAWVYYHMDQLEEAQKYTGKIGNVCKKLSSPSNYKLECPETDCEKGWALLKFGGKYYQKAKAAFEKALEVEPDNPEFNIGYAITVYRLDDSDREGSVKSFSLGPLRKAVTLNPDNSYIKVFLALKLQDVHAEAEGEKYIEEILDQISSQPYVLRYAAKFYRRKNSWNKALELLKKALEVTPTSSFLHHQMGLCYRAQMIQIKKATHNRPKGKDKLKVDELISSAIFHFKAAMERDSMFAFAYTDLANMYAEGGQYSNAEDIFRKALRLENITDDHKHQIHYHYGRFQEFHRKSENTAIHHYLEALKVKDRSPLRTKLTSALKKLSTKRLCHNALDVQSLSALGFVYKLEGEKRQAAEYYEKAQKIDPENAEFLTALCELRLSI
Assay: pulldown
Settings: 5'-triphosphate; approx. 10-fold enrichment vs 16S rRNA, over 20-fold vs 23S rRNA by RT-qPCR

Listeria Lmo2210 mRNA and LhrC sRNA
binding signal: 10 fold
